Molecular target: T1, CD73-ND-L138A (human, UniProt P21589 27-317)
T1 construct: Alanine mutant of CD73-ND
T1 sequence: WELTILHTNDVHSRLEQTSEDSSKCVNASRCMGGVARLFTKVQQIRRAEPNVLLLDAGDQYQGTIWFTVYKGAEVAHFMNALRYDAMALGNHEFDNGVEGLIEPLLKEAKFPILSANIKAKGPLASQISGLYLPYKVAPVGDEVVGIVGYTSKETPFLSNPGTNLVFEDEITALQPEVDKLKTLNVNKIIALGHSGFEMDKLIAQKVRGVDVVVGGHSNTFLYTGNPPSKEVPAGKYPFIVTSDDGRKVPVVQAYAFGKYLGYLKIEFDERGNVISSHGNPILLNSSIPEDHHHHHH
Experiment: ELISA, high plateau value (OD 450 nm)
Method: The ELISA plates were coated with SA protein diluted to 1.5 μg/mL in coating buffer (50 mM carbonate coating buffer, pH 9.6) and incubated overnight at 4° C. The supernatant was discarded, and the plates were washed three times with PBST. Then, 5% skimmed milk powder prepared with PBS was added for blocking and the plates were incubated for 2 h at 37° C. After washing the plates once with PBST, CD73-biotin protein (prepared by biotinylating CD73-His protein according to the EZ-Link NHS-Biotin Reagent instructions) was diluted to 0.5 μg/mL and added at 100 μL/well for incubation at room temperature for 1 h. The plates were washed three times with PBST, and the prepared murine-derived monoclonal antibodies against human CD73 were serially diluted with 1% BSA buffer prepared with PBST and added to the ELISA plates at 100 μl/well. The plates were incubated at 37° C. for 1 h. After washing the plates three times with PBST, HRP-labeled goat anti-mouse IgG secondary antibody was added and the plates were incubated for 30 min at 37° C. After washing the plates three times with PBST, the residual droplets were patted dry on absorbent paper as much as possible. Then, 100 μl of TMB color developing solution was added to each well, and the plates were incubated in the dark at room temperature for 5 min for color development. Subsequently, 50 μl of 2M H₂SO₄ stop solution was added to each well to terminate the substrate reaction. The OD values were read at 450 nm using a multimode microplate reader to analyze the binding ability of the tested antibodies to the target antigen human CD73-His.
Referring to the experimental method in Example 3, the affinity of 48A11-HuV33 for various mutant proteins of CD73-ND was determined. The SA protein was diluted to 1 μg/mL for coating the ELISA plates, and the biotinylated CD73 protein (CD73-biotin) was used at a concentration of 0.1 μg/mL.

B1: 48A11-HuV33 (antibody, human IgG4, V domains shown)
VH: QVQLVQSGAEVKKPGASVKVSCKASGYTFTSYWMHWVRQAPGQGLEWIGEINPSIGRTNYNEKFKSRVTLTRDTSTSTAYMELSSLRSEDTAVYYCARRVYGTMDYWGQGTLVTVSS
VL: DIQMTQSPSSLSASVGDRVTITCKASQDINSYLSWFQQKPGKSPKLLIYRANIWVDGVPSRFSGSGSGQDYTFTISSLQPEDIATYYCLQYDELYTFGQGTKVEIK
notes: Humanized
Top: 1.91

From US20250066499A1 (SUNSHINE GUOJIAN PHARMACEUTICAL SHANGHAI, published 2025)
